# Measured values reported in patent US20230404098A1.
# Molecular target: Bovine kappa casein purified from cow's milk (Sigma Aldrich) (bovine (cow)) (UniProt P02668)
# Experiment: cell-based or functional assay
# UniProt P02668, sequence (P02668 22-190): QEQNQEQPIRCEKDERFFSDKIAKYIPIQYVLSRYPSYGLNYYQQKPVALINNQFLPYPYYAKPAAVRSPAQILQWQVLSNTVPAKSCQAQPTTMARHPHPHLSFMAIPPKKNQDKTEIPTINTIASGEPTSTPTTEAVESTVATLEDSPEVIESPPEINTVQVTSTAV
substance,measurement,value
Recombinantly-produced N-terminally 6xhistidine-tagged bovine (cow) alpha-s1-casein (lacking PTMs),Average A450 (turbidity of the micellar colloid),0.13 A450
